Patent US20240166752A1 (HEFEI TG IMMUNOPHARMA, published 2024)

Tests used:
[1] = target: T1, MICA*008α3-Fc fusion protein; experiment: ELISA, MICA*008α3-Fc coated
T1 construct: also called MICAα3*008 variant
From the text: (§1) The binding characteristics of the MICA antibody and the α3 domains of MICA and MICB was detected by ELISA in this example. The obtained various MICA, MICB variant extracellular region α3 domains (MICAα3*-002, 004, 005, 008, MICBα3*-005) Fc fusion proteins (MICAα3-Fc, MICBα3-Fc) and control antibody IgG were coated into a 96-well plate by the inventors. The signal strength after antibody addition was used to determine the binding characteristics of the antibody to MICA and MICB.
(§2) The fusion protein (MICA*002α3-Fc, amino acid sequence is as set forth in SEQ ID NO: 33; MICA*004α3-Fc, the amino acid sequence is as set forth in SEQ ID NO: 34; MICA*005α3-Fc, the amino acid sequence is as set forth in SEQ ID NO: 35; MICA*008α3-Fc, the amino acid sequence is as set forth in SEQ ID NO: 36; MICB*005α3-Fc, the amino acid sequence is as set forth in SEQ ID NO: 37) was diluted to 1 μg/ml with the PBS buffer and added to a 96-well plate in a volume of 100 μL/well and left overnight at 4° C. The PBS buffer solution was sucked off from the 96-well plate. The plate was washed 6 times with PBST (pH 7.2, PBS containing 0.1% Tween 20) buffer solution. 200 μL/well PBS/10% BSA was added and incubated at 37° C. for 2 hours for blocking. The blocking solution was removed. The plate was washed 6 times with PBST. […] The absorbance at […] was read with a microplate reader. […]

[2] = target: T2, MICB*005α3-Fc fusion protein; experiment: ELISA, MICB*005α3-Fc coated
T2 construct: also called MICBα3*005 variant
From the text: as §1, §2

[3] = target: T3, MICA*002α3-Fc fusion protein; experiment: ELISA, MICA*002α3-Fc coated
T3 construct: also called MICAα3*002 variant
From the text: as §1, §2

[4] = target: T4, MICA extracellular domain α3 domain Fc fusion protein (MICA α3-Fc) (human); experiment: ELISA, MICAα3-Fc coated
T4 construct: also called MICA α3 domain
Procedure: The MICAα3-Fc fusion protein (amino acid sequence as set forth in SEQ ID NO: 24) was diluted to 1 μg/mL with PBS buffer and added to a 96-well plate in a volume of 100 μL/well and left overnight at 4° C. The PBS buffer solution was sucked off from the 96-well plate. The plate was washed 6 times with PBST (pH 7.2, PBS containing 0.1% Tween 20) buffer solution. 200 μL/well PBS/10% BSA was added and incubated at 37 °C for 2 hours for blocking. The blocking solution was removed. The plate was washed 6 times with PBST. The MICA antibodies to be tested were diluted to an appropriate concentration with 100 µL/well PBST/0.05% BSA, and incubated at 37 °C for 1 h. The reaction system was removed. The plate was washed 6 times with PBST. HRP (horseradish peroxidase)-labeled anti-mouse antibody secondary antibody (Boster, BA1050) was diluted with PBST/0.05% BSA at 100 μL/well and incubated for 1 h at 37° C. The plate was washed 6 times with PBST, and 80 μL/well TMB (tetramethylbenzidine) was added. After 3 min of incubation at room temperature, and 80 μL/well 4M sulfuric acid was added to terminate the reaction. The absorbance at […] was read with a microplate reader.

[5] = target: T5, recombinant MICA extracellular region Fc fusion protein (MICA-Fc) (human); experiment: ELISA, MICA-Fc coated
T5 construct: also called human MICA
Procedure: The ELISA assay was used to detect the binding characteristics of the MICA antibody obtained in Example 1. The MICA extracellular region Fc fusion protein (MICA-Fc) as described above was coated into a 96-well plate. The signal strength after antibody addition was used to determine the binding characteristics of the antibody to MICA.
The MICA-Fc fusion protein (amino acid sequence as set forth in SEQ ID NO: 23) was diluted to 1 μg/mL with PBS buffer and added to a 96-well plate in a volume of 100 μL/well and left overnight at 4° C. The PBS buffer solution was sucked off from the 96-well plate. The plate was washed 6 times with PBST (pH 7.2, PBS containing 0.1% Tween 20) buffer solution. 200 μL/well PBS/10% BSA was added and incubated at 37 °C for 2 hours for blocking. The blocking solution was removed. The plate was washed 6 times with PBST. The MICA antibody to be tested was diluted to an appropriate concentration with 100 μL/well PBST/0.05% BSA, and incubated for 1 h at 37° C. The reaction system was removed. The plate was washed 6 times with PBST. HRP (horseradish peroxidase)-labeled anti-mouse antibody secondary antibody (Boster, BA1050) was diluted with PBST/0.05% BSA at 100 μL/well and incubated for 1 h at 37° C. After the incubation, the plate was washed 6 times with PBST, and 80 μL/well TMB (tetramethylbenzidine) was added. […] The absorbance at […] was read with a microplate reader.

[6] = target: T6, MICA expressed on CHO-K1-MICA cells (human, UniProt Q29983 24-383); experiment: Western blot of CHO-K1-MICA lysate
T6 construct: Full-length entry as expressed from the lentiviral vector
T6 sequence: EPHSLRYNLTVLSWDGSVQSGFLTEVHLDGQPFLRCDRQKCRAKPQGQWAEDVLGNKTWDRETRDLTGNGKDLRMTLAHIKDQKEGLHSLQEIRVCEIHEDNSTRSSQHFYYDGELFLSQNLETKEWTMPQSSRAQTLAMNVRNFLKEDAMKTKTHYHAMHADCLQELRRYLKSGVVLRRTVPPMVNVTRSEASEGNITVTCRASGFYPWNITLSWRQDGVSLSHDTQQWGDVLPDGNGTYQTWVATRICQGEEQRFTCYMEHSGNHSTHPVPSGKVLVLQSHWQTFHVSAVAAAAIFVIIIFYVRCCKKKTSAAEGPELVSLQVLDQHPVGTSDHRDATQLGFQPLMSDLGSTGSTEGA
Procedure: The Western blot assay was used to determine the antigenic epitope characteristics of the MICA antibody.
CHO-K1-MICA, CHO-K1 cells constructed in Example 4 were washed twice with PBS. The RIPA lysate was then added for lysis for 15 min on ice. After 5 min of centrifugation at 15,000 g at 4° C., the supernatant was collected. The lysate supernatant was subjected to protein quantification using a BCA kit. Sample was then prepared with SDS-PAGE loading buffer and the sample addition amount is 50 μg/well. After electrophoresis, the sample was transferred to a nitrocellulose membrane and blocked with 5% nonfat dried milk at room temperature for 1 h. MICA antibody diluted at 1:2000 (w/v) was then added and incubated overnight at 4° C. The membrane was washed 5 min×6 times with 1%% PBST, then HRP-goat anti-mouse IgG diluted at 1:5000 (v/v) was added and incubated at room temperature for 1 h. The membrane was washed 5 min×6 times with 1%% PBST. Chemiluminescence was detected using ECL substrate development. The results are shown in FIG. 8, further showing that the antibody of the present disclosure can bind to a linear epitope of MICA protein.

[7] = target: T7, MICA*004α3-Fc fusion protein; experiment: ELISA, MICA*004α3-Fc coated
T7 construct: also called MICAα3*004 variant
From the text: as §1, §2

Measured: binding result

T7 sequence (chain, as listed by the source limits assumed): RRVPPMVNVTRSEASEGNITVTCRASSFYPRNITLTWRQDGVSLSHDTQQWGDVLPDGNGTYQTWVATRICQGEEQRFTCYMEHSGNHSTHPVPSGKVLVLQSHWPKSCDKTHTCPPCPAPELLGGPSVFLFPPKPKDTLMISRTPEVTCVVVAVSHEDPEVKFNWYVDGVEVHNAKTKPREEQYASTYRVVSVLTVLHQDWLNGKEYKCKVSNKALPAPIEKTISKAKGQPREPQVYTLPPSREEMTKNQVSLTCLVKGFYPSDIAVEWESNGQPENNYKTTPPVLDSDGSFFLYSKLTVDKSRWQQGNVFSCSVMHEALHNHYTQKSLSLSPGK
T4 sequence (chain, as listed by the source limits assumed): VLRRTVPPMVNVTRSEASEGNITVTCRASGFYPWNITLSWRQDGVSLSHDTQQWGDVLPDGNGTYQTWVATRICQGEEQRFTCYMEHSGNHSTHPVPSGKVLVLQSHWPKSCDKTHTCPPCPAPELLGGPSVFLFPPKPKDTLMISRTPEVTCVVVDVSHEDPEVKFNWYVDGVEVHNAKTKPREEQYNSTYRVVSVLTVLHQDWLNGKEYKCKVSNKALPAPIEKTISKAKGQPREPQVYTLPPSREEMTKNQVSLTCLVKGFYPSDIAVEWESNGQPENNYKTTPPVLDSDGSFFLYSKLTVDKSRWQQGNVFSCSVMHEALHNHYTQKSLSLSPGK
T2 sequence (chain, as listed by the source limits assumed): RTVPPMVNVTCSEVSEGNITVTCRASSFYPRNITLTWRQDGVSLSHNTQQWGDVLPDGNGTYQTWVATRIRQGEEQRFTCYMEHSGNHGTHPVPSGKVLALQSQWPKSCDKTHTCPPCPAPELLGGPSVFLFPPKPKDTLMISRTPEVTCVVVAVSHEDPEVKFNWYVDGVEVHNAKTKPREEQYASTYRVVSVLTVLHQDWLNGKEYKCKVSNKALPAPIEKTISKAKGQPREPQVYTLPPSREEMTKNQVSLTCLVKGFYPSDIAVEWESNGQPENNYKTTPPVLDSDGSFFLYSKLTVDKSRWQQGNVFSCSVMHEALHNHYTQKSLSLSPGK
T3 sequence (chain, as listed by the source limits assumed): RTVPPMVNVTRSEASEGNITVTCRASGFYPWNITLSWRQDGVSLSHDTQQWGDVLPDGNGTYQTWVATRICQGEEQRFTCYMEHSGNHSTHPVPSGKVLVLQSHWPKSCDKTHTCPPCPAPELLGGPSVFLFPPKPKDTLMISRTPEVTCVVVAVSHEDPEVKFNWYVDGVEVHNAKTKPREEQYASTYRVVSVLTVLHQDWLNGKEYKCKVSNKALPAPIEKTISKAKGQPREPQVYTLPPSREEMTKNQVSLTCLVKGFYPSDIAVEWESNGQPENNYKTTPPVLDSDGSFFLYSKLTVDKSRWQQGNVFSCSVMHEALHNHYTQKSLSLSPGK
T1 sequence (chain, as listed by the source limits assumed): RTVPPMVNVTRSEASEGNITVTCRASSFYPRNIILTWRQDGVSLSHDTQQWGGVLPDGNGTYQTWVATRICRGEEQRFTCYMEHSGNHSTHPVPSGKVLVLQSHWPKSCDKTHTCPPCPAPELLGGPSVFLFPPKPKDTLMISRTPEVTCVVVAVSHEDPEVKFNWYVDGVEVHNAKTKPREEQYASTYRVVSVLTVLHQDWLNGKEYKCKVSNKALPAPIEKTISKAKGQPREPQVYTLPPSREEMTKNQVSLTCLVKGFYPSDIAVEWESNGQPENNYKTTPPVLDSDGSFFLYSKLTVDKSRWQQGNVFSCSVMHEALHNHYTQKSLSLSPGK

B1: MICA antibody 5A1 (murine monoclonal antibody against human MICA) (antibody, V domains shown)
VH: QVQLKQSGPGLVQPSQSLSITCIVSGFSLTTYGVHWVRQSPGKGLEWLGMIWTDGTTDYNAAFISRLSINKDNSKSQVFLKMNSLQADDTGIYYCVRKGHGYYYAMDYWGQGTSVTVSS
VL: QILLTQSPAILSASLGERVTMTCTASSSVSSSYLHWYQQKPGSSPKLWIYSTSNLASGVPARFSGGGSGTSYSLTVSNMEAEDAATYYCHQYHRSPFTFGSGTKLEIK
notes: Murine monoclonal antibody from a hybridoma; also called No. 5A1; the antibody of the present disclosure
binds: [1] | [2] | [3] | [4] | [5] | [6] | [7]
